Experimental data published in patent US20180362632A1 (published 2018).
Where “and” joins values, the source holds several entries; their conditions need not be identical. Equal values may be shown once.

Each binder was assayed against T1, recombinant human GM-CSF protein (human, UniProt P04141 18-144) (assay: ELISA).
T1 sequence (P04141 18-144): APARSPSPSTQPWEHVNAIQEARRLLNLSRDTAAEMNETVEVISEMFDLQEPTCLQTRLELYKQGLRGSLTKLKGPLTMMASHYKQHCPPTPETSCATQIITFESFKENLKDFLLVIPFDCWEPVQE

EC50	Binder
0.464 nM and 0.483 nM	50C5 chimera (antibody, V domains shown) VH: QVQLQQSAAELVRPGASVKMSCKASGYIFTPYSIHWIKQRPGQGLEWIGYINPSTGYIEYNQHFKDRTTLTADKSSSTAYMQLRSLTSEDSAVYYCARGGDYEGYFDYWGQGTTLTVSS VL: DIQMTQSPDSLSASVGETVTITCRLNENIYSFLAWYQQRQGKSPQLLVYNAETLAEDVPSRFSGSGSGTQFSLKISSLQTDDFGTYYCQQHYGTPYTFGGGTNLEIE
0.568 nM	Hu50C5-9 (antibody, V domains shown) VH: EVQLVQSGAEVKKPGSSVKVSCKASGYIFSPYSIHWVRQAPGQGLEWMGYINPSTGYIEYNQHFKDRVTITADKSTSTAYMELRSLRSEDTAVYYCARGGDYEGYFDYWGQGTTVTVSS VL: DIQMTQSPSSLSASVGDRVTITCRLNENIYSFLAWYQQKPGKAPKLLVYNAETLAEDVPSRFSGSGSGTQFTLTISSLQPEDFATYYCQQHYGTPYTFGGGTKVEIK
1.94 nM	Hu50C5-14 (antibody, V domains shown) VH: EVQLVQSGAEVKKPGSSVKVSCKASGYIFSPYSIHWVRQAPGQGLEWIGYINPSTGYIEYNQHFKDRVTITADKSTSTAYMELRSLRSEDTAVYYCARGGDYEGYFDYWGQGTTVTVSS VL: DIQMTQSPSSLSASVGDRVTITCRLNENIYSFLAWYQQKPGKAPKLLVYNAETLAEDVPSRFSGSGSGTQFTLTISSLQPEDFATYYCQQHYGTPYTFGGGTKVEIK
0.345 nM	Hu50C5-6 (antibody, V domains shown) VH: EVQLVQSGAEVKKPGSSVKVSCKASGYIFSPYSIHWVRQAPGQGLEWMGYINPSTGYIEYNQHFKDRVTITADKSTSTAYMELRSLRSEDTAVYYCARGGDYEGYFDYWGQGTTVTVSS VL: DIQMTQSPSSLSASVGDRVTITCRLNENIYSFLAWYQQKPGKAPKLLIYNAETLAEGVPSRFSGSGSGTDFTLTISSLQPEDFATYYCQQHYGTPYTFGGGTKVEIK
1.03 nM	Hu50C5-10 (antibody, V domains shown) VH: EVQLVQSGAEVKKPGSSVKVSCKASGYIFSPYSIHWVRQAPGQGLEWMGYINPSTGYIEYNQHFKDRVTITADKSTSTAYMELRSLRSEDTAVYYCARGGDYEGYFDYWGQGTTVTVSS VL: DIQMTQSPSSLSASVGDRVTITCRLNENIYSFLAWYQQKPGKSPKLLVYNAETLAEDVPSRFSGSGSGTQFTLTISSLQPEDFATYYCQQHYGTPYTFGGGTKVEIK
1.85 nM	Hu50C5-3 (antibody, V domains shown) VH: EVQLVQSGAEVKKPGSSVKVSCKASGGTFSPYSIHWVRQAPGQGLEWMGYINPSTGYIEYNQHFKDRVTITADKSTSTAYMELRSLRSEDTAVYYCARGGDYEGYFDYWGQGTTVTVSS VL: DIQMTQSPSSLSASVGDRVTITCRLNENIYSFLAWYQQKPGKAPKLLVYNAETLAEDVPSRFSGSGSGTDFTLTISSLQPEDFATYYCQQHYGTPYTFGGGTKVEIK
1.18 nM	Hu50C5-4 (antibody, V domains shown) VH: EVQLVQSGAEVKKPGSSVKVSCKASGGTFSPYSIHWVRQAPGQGLEWMGYINPSTGYIEYNQHFKDRVTITADKSTSTAYMELRSLRSEDTAVYYCARGGDYEGYFDYWGQGTTVTVSS VL: DIQMTQSPSSLSASVGDRVTITCRLNENIYSFLAWYQQKPGKAPKLLVYNAETLAEDVPSRFSGSGSGTQFTLTISSLQPEDFATYYCQQHYGTPYTFGGGTKVEIK
0.438 nM	Hu50C5-8 (antibody, V domains shown) VH: EVQLVQSGAEVKKPGSSVKVSCKASGYIFSPYSIHWVRQAPGQGLEWMGYINPSTGYIEYNQHFKDRVTITADKSTSTAYMELRSLRSEDTAVYYCARGGDYEGYFDYWGQGTTVTVSS VL: DIQMTQSPSSLSASVGDRVTITCRLNENIYSFLAWYQQKPGKAPKLLVYNAETLAEDVPSRFSGSGSGTDFTLTISSLQPEDFATYYCQQHYGTPYTFGGGTKVEIK
3.24 nM	Hu50C5-12 (antibody, V domains shown) VH: EVQLVQSGAEVKKPGSSVKVSCKASGYIFSPYSIHWVRQAPGQGLEWIGYINPSTGYIEYNQHFKDRVTITADKSTSTAYMELRSLRSEDTAVYYCARGGDYEGYFDYWGQGTTVTVSS VL: DIQMTQSPSSLSASVGDRVTITCRLNENIYSFLAWYQQKPGKAPKLLVYNAETLAEGVPSRFSGSGSGTDFTLTISSLQPEDFATYYCQQHYGTPYTFGGGTKVEIK
0.462 nM	Hu50C5-11 (antibody, V domains shown) VH: EVQLVQSGAEVKKPGSSVKVSCKASGYIFSPYSIHWVRQAPGQGLEWIGYINPSTGYIEYNQHFKDRVTITADKSTSTAYMELRSLRSEDTAVYYCARGGDYEGYFDYWGQGTTVTVSS VL: DIQMTQSPSSLSASVGDRVTITCRLNENIYSFLAWYQQKPGKAPKLLIYNAETLAEGVPSRFSGSGSGTDFTLTISSLQPEDFATYYCQQHYGTPYTFGGGTKVEIK
0.844 nM	Hu50C5-7 (antibody, V domains shown) VH: EVQLVQSGAEVKKPGSSVKVSCKASGYIFSPYSIHWVRQAPGQGLEWMGYINPSTGYIEYNQHFKDRVTITADKSTSTAYMELRSLRSEDTAVYYCARGGDYEGYFDYWGQGTTVTVSS VL: DIQMTQSPSSLSASVGDRVTITCRLNENIYSFLAWYQQKPGKAPKLLVYNAETLAEGVPSRFSGSGSGTDFTLTISSLQPEDFATYYCQQHYGTPYTFGGGTKVEIK

Target: T1, recombinant human GM-CSF protein
Test: ELISA
Remark: another data set of the same source

Binder	EC50
50C5 chimera (antibody, V domains shown) VH: QVQLQQSAAELVRPGASVKMSCKASGYIFTPYSIHWIKQRPGQGLEWIGYINPSTGYIEYNQHFKDRTTLTADKSSSTAYMQLRSLTSEDSAVYYCARGGDYEGYFDYWGQGTTLTVSS VL: DIQMTQSPDSLSASVGETVTITCRLNENIYSFLAWYQQRQGKSPQLLVYNAETLAEDVPSRFSGSGSGTQFSLKISSLQTDDFGTYYCQQHYGTPYTFGGGTNLEIE	0.547 nM
Hu50C5-15 (antibody, V domains shown) VH: EVQLVQSGAEVKKPGSSVKVSCKASGYIFSPYSIHWVRQAPGQGLEWIGYINPSTGYIEYNQHFKDRVTITADKSTSTAYMELRSLRSEDTAVYYCARGGDYEGYFDYWGQGTTVTVSS VL: DIQMTQSPSSLSASVGDRVTITCRLNENIYSFLAWYQQKPGKSPKLLVYNAETLAEDVPSRFSGSGSGTQFTLTISSLQPEDFATYYCQQHYGTPYTFGGGTKVEIK	2.72 nM

Now from value to binder:

EC50	Binder
0.356 nM	Hu50C5-23 (antibody, V domains shown) VH: EVQLVQSGAEVKKPGSSVKVSCKASGYIFTPYSIHWVRQAPGQGLEWIGYINPSTGYIEYNQHFKDRTTLTADKSTSTAYMELRSLRSEDTAVYYCARGGDYEGYFDYWGQGTTVTVSS VL: DIQMTQSPSSLSASVGDRVTITCRLNENIYSFLAWYQQKPGKAPKLLVYNAETLAEDVPSRFSGSGSGTDFTLTISSLQPEDFATYYCQQHYGTPYTFGGGTKVEIK
0.305 nM	Hu50C5-20 (antibody, V domains shown) VH: EVQLVQSGAEVKKPGSSVKVSCKASGYIFSPYSIHWVRQAPGQGLEWIGYINPSTGYIEYNQHFKDRTTLTADKSTSTAYMELRSLRSEDTAVYYCARGGDYEGYFDYWGQGTTVTVSS VL: DIQMTQSPSSLSASVGDRVTITCRLNENIYSFLAWYQQKPGKSPKLLVYNAETLAEDVPSRFSGSGSGTQFTLTISSLQPEDFATYYCQQHYGTPYTFGGGTKVEIK
0.46 nM	Hu50C5-16 (antibody, V domains shown) VH: EVQLVQSGAEVKKPGSSVKVSCKASGYIFSPYSIHWVRQAPGQGLEWIGYINPSTGYIEYNQHFKDRTTLTADKSTSTAYMELRSLRSEDTAVYYCARGGDYEGYFDYWGQGTTVTVSS VL: DIQMTQSPSSLSASVGDRVTITCRLNENIYSFLAWYQQKPGKAPKLLIYNAETLAEGVPSRFSGSGSGTDFTLTISSLQPEDFATYYCQQHYGTPYTFGGGTKVEIK
0.215 nM	Hu50C5-17 (antibody, V domains shown) VH: EVQLVQSGAEVKKPGSSVKVSCKASGYIFSPYSIHWVRQAPGQGLEWIGYINPSTGYIEYNQHFKDRTTLTADKSTSTAYMELRSLRSEDTAVYYCARGGDYEGYFDYWGQGTTVTVSS VL: DIQMTQSPSSLSASVGDRVTITCRLNENIYSFLAWYQQKPGKAPKLLVYNAETLAEGVPSRFSGSGSGTDFTLTISSLQPEDFATYYCQQHYGTPYTFGGGTKVEIK
0.305 nM	Hu50C5-24 (antibody, V domains shown) VH: EVQLVQSGAEVKKPGSSVKVSCKASGYIFTPYSIHWVRQAPGQGLEWIGYINPSTGYIEYNQHFKDRTTLTADKSTSTAYMELRSLRSEDTAVYYCARGGDYEGYFDYWGQGTTVTVSS VL: DIQMTQSPSSLSASVGDRVTITCRLNENIYSFLAWYQQKPGKAPKLLVYNAETLAEDVPSRFSGSGSGTQFTLTISSLQPEDFATYYCQQHYGTPYTFGGGTKVEIK
0.339 nM	Hu50C5-21 (antibody, V domains shown) VH: EVQLVQSGAEVKKPGSSVKVSCKASGYIFTPYSIHWVRQAPGQGLEWIGYINPSTGYIEYNQHFKDRTTLTADKSTSTAYMELRSLRSEDTAVYYCARGGDYEGYFDYWGQGTTVTVSS VL: DIQMTQSPSSLSASVGDRVTITCRLNENIYSFLAWYQQKPGKAPKLLIYNAETLAEGVPSRFSGSGSGTDFTLTISSLQPEDFATYYCQQHYGTPYTFGGGTKVEIK
0.612 nM	Hu50C5-18 (antibody, V domains shown) VH: EVQLVQSGAEVKKPGSSVKVSCKASGYIFSPYSIHWVRQAPGQGLEWIGYINPSTGYIEYNQHFKDRTTLTADKSTSTAYMELRSLRSEDTAVYYCARGGDYEGYFDYWGQGTTVTVSS VL: DIQMTQSPSSLSASVGDRVTITCRLNENIYSFLAWYQQKPGKAPKLLVYNAETLAEDVPSRFSGSGSGTDFTLTISSLQPEDFATYYCQQHYGTPYTFGGGTKVEIK
0.889 nM	Hu50C5-22 (antibody, V domains shown) VH: EVQLVQSGAEVKKPGSSVKVSCKASGYIFTPYSIHWVRQAPGQGLEWIGYINPSTGYIEYNQHFKDRTTLTADKSTSTAYMELRSLRSEDTAVYYCARGGDYEGYFDYWGQGTTVTVSS VL: DIQMTQSPSSLSASVGDRVTITCRLNENIYSFLAWYQQKPGKAPKLLVYNAETLAEGVPSRFSGSGSGTDFTLTISSLQPEDFATYYCQQHYGTPYTFGGGTKVEIK
0.272 nM	Hu50C5-19 (antibody, V domains shown) VH: EVQLVQSGAEVKKPGSSVKVSCKASGYIFSPYSIHWVRQAPGQGLEWIGYINPSTGYIEYNQHFKDRTTLTADKSTSTAYMELRSLRSEDTAVYYCARGGDYEGYFDYWGQGTTVTVSS VL: DIQMTQSPSSLSASVGDRVTITCRLNENIYSFLAWYQQKPGKAPKLLVYNAETLAEDVPSRFSGSGSGTQFTLTISSLQPEDFATYYCQQHYGTPYTFGGGTKVEIK
